Here are results for one substance from patent US20150024453A1, “INTEGRATED PROCESS FOR DUAL BIOCATALYTIC CONVERSION OF CO2 GAS INTO BIO-PRODUCTS BY ENZYME ENHANCED HYDRATION AND BIOLOGICAL CULTURE” (CO2 SOLUTIONS INC., priority 2012, published 2015).

A short description of the series: Tests of carbonic anhydrase activity in carbonate absorption solutions. In kind it is biochemical. An excerpt: The absorption solution that is fed to the enzymatic bicarbonate production unit may be a sodium carbonate solution having a sodium carbonate concentration between about 0.3M and about 2.4M (temperature being between about 30 t for a concentration of about 2.5M) or a potassium carbonate solution having a potassium carbonate concentration between about 1M and about 2M. Tests have confirmed that carbonic anhydrase has good activity in sodium carbonate between 0.3M and 0.5M and in potassium carbonate at 1.45M. Halophile-type carbonic anhydrase, with elevated resistance to salt, may be used for higher concentrations. As opposed to carbonates, bicarbonates are less soluble (two times less approximately) and, therefore, if precipitation occurs, it would be of bicarbonate salts rather than carbonate salts. Cooling the ion loaded solution exiting the enzymatic CO2 capture unit may also encourage precipitation, as the solubility of bicarbonates and carbonates would be lowered. For sodium bicarbonate, temperature may be carefully adjusted since below about 30° C., a solution at 2.5M would not be soluble. The following Solubility Table may be used to set, adjust or control the carbonate or bicarbonate concentration as well as temperature in the enzymatic bicarbonate production and CO2 capture unit: […]

For carbonic anhydrase, the enzyme activity entry was “good activity” (in potassium carbonate at 1.45M); “good activity” (in sodium carbonate between 0.3M and 0.5M).
